In US9429584B2, “Antibody against insoluble fibrin” (National Cancer Center, priority 2013, dated 2016):

B1: Fib-0355 antibody: monoclonal anti-β chain antibody produced by hybridoma Fib-0355; L chain variable region SEQ ID NO: 11, H chain variable region SEQ ID NO: 15 (antibody, listed as Mus musculus, V domains shown)
VH: GPELKKPGETVKISCKASGYTFTNYGMNWVKQAPGKGLKWMGWINTNTGEPTYAEEFKGRFAFSLETSASTAYLQINNLKNEDTATYFCARLLDYWGQGTTLTVSS
VL: PSSLAVSAGEKVTMSCKSSQSVLYSSNQKNYLAWYQQKPGQSPKLLIYWASTRESGVPDRFTGSGSGTDFTLTISSVQAEDLAVYYCQQYLSSYTFGG
modifications: SITE (1)..(106) Variable Region of Heavy Chain (Fib-0355); SITE (1)..(98) Variable Region of Light Chain(Fib-0355)
B2: 34-105 antibody: monoclonal anti-γ chain antibody produced by hybridoma 34-105; L chain variable region SEQ ID NO: 3, H chain variable region SEQ ID NO: 7 (antibody, listed as Mus musculus, V domains shown)
VH: EVKLQESGGGLVKPGGSLKLSCAASGFTFSSYAMSWVRQTPEKRLEWVAAISSGGTTYYPDSVKGRFTISRDNARNILYLQMSSLRSEDTAMYYCVRGGTIGAYWGQGTLVTVSA
VL: DIVITQSPASLAVSLGQRATISYRASKSVSTSGYSYMHWNQQKPGQPPRLLIYLVSNLESGVPARFSGSGSGTDFTLNIHPVEEEDAATYYCQHIRELTRSEGGPSWK
modifications: SITE (1)..(115) Variable Region of Heavy Chain (34-105); SITE (1)..(108) Variable Region of Light Chain(34-105)

Biological target: T1, insoluble fibrin (Homo sapiens, UniProt P02675+P02679)
T1 sequence (P02675 45-491 limits assumed): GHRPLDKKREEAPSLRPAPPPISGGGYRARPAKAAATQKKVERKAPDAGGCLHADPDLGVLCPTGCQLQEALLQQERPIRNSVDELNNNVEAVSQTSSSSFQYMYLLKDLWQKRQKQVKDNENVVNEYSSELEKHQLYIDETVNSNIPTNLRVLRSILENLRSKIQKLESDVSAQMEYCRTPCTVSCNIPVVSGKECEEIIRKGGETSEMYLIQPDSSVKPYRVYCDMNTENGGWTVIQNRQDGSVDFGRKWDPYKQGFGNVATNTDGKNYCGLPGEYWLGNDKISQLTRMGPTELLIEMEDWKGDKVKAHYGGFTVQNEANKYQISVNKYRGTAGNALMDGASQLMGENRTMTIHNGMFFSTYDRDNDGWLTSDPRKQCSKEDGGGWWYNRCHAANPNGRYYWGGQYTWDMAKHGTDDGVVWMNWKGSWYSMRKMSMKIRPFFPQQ
T1 sequence (P02679 27-453): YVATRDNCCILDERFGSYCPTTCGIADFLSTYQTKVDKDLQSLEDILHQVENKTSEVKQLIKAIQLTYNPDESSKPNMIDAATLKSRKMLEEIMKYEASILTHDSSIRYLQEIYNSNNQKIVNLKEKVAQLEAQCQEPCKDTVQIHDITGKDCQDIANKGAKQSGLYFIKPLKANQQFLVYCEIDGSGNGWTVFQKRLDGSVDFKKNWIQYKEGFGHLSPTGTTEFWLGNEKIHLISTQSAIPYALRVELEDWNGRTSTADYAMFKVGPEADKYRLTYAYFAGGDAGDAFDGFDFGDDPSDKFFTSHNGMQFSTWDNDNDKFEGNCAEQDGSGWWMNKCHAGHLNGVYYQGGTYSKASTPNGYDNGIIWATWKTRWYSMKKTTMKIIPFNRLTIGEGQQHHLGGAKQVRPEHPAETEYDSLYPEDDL
Assay: ELISA method of Example 2, fibrin plate
Type: binding
Settings: antibody 10 μg/mL
Method: Each of the antibody solutions (100 μL each) at 10 μg/mL was added to the fibrin plate and the fibrinogen plate, and allowed to stand at room temperature for 1 hour. After washing with TBS-T, Bethyl Anti-Human IgG-HRP (×1000 dilution) or Bethyl Anti-Mouse IgG-HRP (×10000 dilution) was added as a secondary antibody. Then, after washing with TBS-T, colorimetry was conducted with OPD for 10 minutes, and measurement was conducted at an absorption wavelength of 492 nm.

Molecule | affinity for insoluble fibrin (absorbance at 492 nm) relative to that of the 102-10 antibody | ratio of the affinity for insoluble fibrin to the affinity for fibrinogen (absorbance at 492 nm)
B1 | 12 times | 
B2 | 16 times | 25 times
